The target in this assay is T1, Aβ(1-42) (UniProt P05067 672-713).
T1 construct: domain: Aβ(1-42); Residue numbers count on Aβ, not on APP
In words: 125I-labeled GST-ABAD truncation binding to immobilized Aβ(1-42).

T1 sequence (P05067 672-713 limits assumed): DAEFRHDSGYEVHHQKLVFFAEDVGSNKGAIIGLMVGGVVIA

B1: GST-ABAD(159-261) (other, UniProt Q99714 159-261, looked up)
chain: FEGQVGQAAYSASKGGIVGMTLPIARDLAPIGIRVMTIAPGLFGTPLLTSLPEKVCNFLASQVPFPSRLGDPAEYAHLVQAIIENPFLNGEVIRLDGAIRMQP
modifications: 125I-labeled
notes: not shown: glutathione S-transferase (GST) tag
For B1, the binding result is “no binding”.

(Values after patent publication US20110171194A1 (TRUSTEES OF COLUMBIA UNIVERSITY IN THE CITY OF NEW YORK, published 2011).)
